In article PMC8480326, “Chemoenzymatic glycan-selective remodeling of a therapeutic lysosomal enzyme with high-affinity M6P-glycan ligands. Enzyme substrate specificity is the name of the game” (Chemical Science, 2021):

Assay: observation during stepwise remodeling
Conditions: glycan lost; control: commercial rhGAA

Substance: recombinant human acid α-glucosidase (rhGAA, Lumizyme): Endo-F3 deglycosylation
- stability_or_folding: decreases
